Assay results reported in patent publication US7374920B2, “Ginkgo biloba levopimaradiene synthase” (priority 2001, dated 2008).
“Also recorded” adds a separate entry of the source.

What was measured:
[1] = test system: EHY18 yeast cells; test: in vivo expression of GbLS constructs in yeast strain EHY18 that accumulates GGDP, GC quantitation of products; type: cell-based
Description: The yeast strain of the copending application employed was EHY18 (Hart, E., 2001) which was further transformed with multiple-copy yeast expression vectors comprising an isolated and purified nucleic acid sequence of GbLS or derivatives thereof, which are described herein under control of the GAL1 inducible promoter. Yeast cells were grown to saturation in 5 mL ScD-Leu-Ura at 30° C. Cells were harvested (1300×g, 2 min, 25° C.) and resuspended in 500 μL sterile Milli-Q H2O (2×). The washed cells were resuspended in 5 mL sterile Milli-Q H2O. An aliquot of the culture (5 μL) was added to a 25 mL Corex tube containing pre-prepared 2× resin and 5 mL ScG-Leu-Ura (4% galactose) and shaken at 30° C. for 6 days. Resin was collected by filtration through a Kontes chromatography column (1.7 cm diameter) and rinsed with dI H2O until eluent was clear. The resin was incubated in 2 mL ethanol for several minutes, eluted, and repeated 2×. The combined eluents were dissolved in approximately 3 mL dI H2O and extracted (3×) with 3 mL hexane. The combined extracts were concentrated under a stream of nitrogen. GC analysis (quantitation extrapolated from 0.2 mg/mL longifolene external standard) indicated the following product profile (obtained from triplicate measurement of three cultures): 0.61±0.20 mg/L levopimaradiene, 0.04±0.01 mg/L abietadiene, 0.15±0.05 mg/L abietatriene, 0.16±0.13 mg/L (+)-copalol, and 1.79±0.90 mg/L geranylgeraniol. GC/MS fragmentation confirmed the identity of each compound.
A large scale culture (1-L) was prepared by growing the yeast cells to saturation in 5 mL ScD-Leu-Ura at 30° C. Cells were harvested (1300×g, 2 min, 25° C.) and resuspended in 500 μL sterile Milli-Q H2O (2×). The washed cells were resuspended in 5 mL sterile Milli-Q H2O. An aliquot of the culture (1 mL) was added to a 2 L flask containing 1-L ScG-Leu-Ura (4% galactose) and 88.27 g resin in 120 mL Milli-Q H2O (pre-prepared). The resin was eluted with ethanol (3×100 mL with 20 min incubation periods), which was subsequently extracted (6×) with hexane. The combined extracts were dried over magnesium sulfate, filtered, and concentrated under reduced pressure. GC analysis (quantitation extrapolated from 0.2 mg/mL longifolene external standard) indicated the following product profile (obtained from triplicate measurement): 0.29±0.04 mg/L levopimaradiene, 0.04±0.02 mg/L abietadiene, 0.13±0.04 mg/L abietatriene, 0.11±0.02 mg/L (+)-copalol, and 0.56±0.03 mg/L geranylgeraniol. GC/MS analyses confirmed the production of the above noted diterpenes, which included hydrocarbons and an alcohol.
Further optimization studies employed the Ser61 construct. Factors influencing diterpene production included induction period and concentration of galactose and resin in the inducing medium.

[2] = in vitro enzymatic assay of levopimaradiene synthase constructs expressed in E. coli BL21(DE3); type: biochemical, Escherichia coli
Description: The desired plasmids were prepared by ligating the mutated gene insert into the similarly digested vectors pET32c(+) (Novagen; Madison, Wis.) and pRS426GAL (Hua, 2000), a multiple copy yeast expression vector. These plasmids was expressed in E. coli BL21(DE3) (Novagen; Madison, Wis.). E. coli cells were grown in Luria-Bertani medium supplemented with 100 μg/mL ampicillin at 37° C. with shaking to OD600 ˜0.6. The following parameters were tested: isopropyl 1-thio-β-D-galactopyranoside (IPTG) concentration (50, 100, 250, 500, and 1000 μM); and temperature and time (20° C. for 2, 3, 4, 6, 21 hours, 22° C. for 6, 8, 16, 19, 22, 45 hours, and 30° C. for 3, 6 hours). The following assay conditions were tested to obtain maximum diterpene product yield: 30 mM HEPES (N-2-hydroxyethylpiperazine-N′-[…]), pH 6.9, 7.2, 7.6, 8.0; 30 mM Tris (tris(hydroxymethyl)aminomethane hydrochloride), pH 7.4, 7.8, 8.2; 1, 5, 10% glycerol; 1, 3, 5, 10, 20 mM DTT (dithiothreitol); 20 mM β-mercaptoethanol; 2, 5, 8% Triton X-100; 5% Tween 80; 0, 2, 7.5, 20, 50 mM MgCl2; 0, 30, 500, 1000 μM MnCl2; 2, 10, 13.3, 20, 40, 80, 200 μM GGDP; and 23° C. and 32° C. assay temperatures.
Optimal soluble protein production and diterpene yield were obtained with the following conditions. Cell cultures were induced with 1 mM IPTG at 20° C. with shaking for 6 hours and lysed by sonication in 30 mM HEPES, pH 7.2, 5 mM DTT, and 5% glycerol. The soluble fraction of the lysate (100 mg/mL) was incubated with 20 μM GGDP in 30 mM HEPES, pH 7.2, 5 mM DTT, 5% glycerol, 2 mM MgCl2, and 500 μM MnCl2 overnight at 32° C.
(§1) All in vitro reactions were extracted 3× with hexane and dried over MgSO4. The reaction was further extracted twice with diethyl ether and dried over MgSO4. Thereafter, the crude lysate was suspended in 100 mM Tris, pH 8.0 containing 2.9 units/mg apyrase (a dephosphorylating agent) and 10 units/μL calf intestinal alkaline phosphatase, incubated at 30° C. for 3 hours, and extracted with diethyl ether as noted above (Croteau and Cane, 1985). The crude reaction mixtures were eluted over SiO2, concentrated, and analyzed by GC and GC/MS.
(§2) Gas chromatography spectra were obtained on a Hewlett Packard 6890 Series GC System equipped with an Rtx-5 capillary column (Restek, 30 m×0.25 mm i.d., 0.10 μm df). The following separation conditions and temperature program were employed: injector port 250° C., FID 250° C., split ratio 39:1, helium flow 20 cm/s (0.6 mL/min), 150° C. hold 5 min, increase to 250° C. (5° C./min), hold 5 min. GC/MS spectra were obtained on a Hewlett-Packard 5890A instrument with a 30-m DB-5 ms column (J&W Scientific Inc., 0.25 mm i.d., 0.10 μm df). The following separation conditions and temperature program were employed: injector port 280° C., transfer lines: 280° C., helium flow at 30 cm/s (1 mL/min) with splitless injection at 150° C. hold 3 min, increase to 250° C. (5° C./min), hold 5 min. Mass spectra (m/z 50 to 500) were obtained on a VG ZAB-HF reverse-geometry double-focusing instrument at 70 eV with an electron-impact ion source (200° C.). Accelerating voltage was set to 8 kV and the resolution was 1000 (10% valley).
The skilled artisan recognizes that lysis and assay conditions should be optimized. Examples of parameters that can be adjusted to optimize conditions include altering buffer, pH, reductant, reductant concentration, metal cofactors, cofactor concentrations, glycerol concentrations, substrate concentrations, and assay temperatures. […] Maximum soluble protein production and diterpene yield were obtained with the following conditions. Cell cultures were induced with 1 mM IPTG at 20° C. with shaking for 6 hours and lysed by sonication in 30 mM HEPES, pH 7.2, 5 mM DTT, and 5% glycerol. The soluble fraction of the lysate (100 mg/1 mL) was incubated with 20 μM GGDP in 30 mM HEPES, pH 7.2, 5 mM DTT, 5% glycerol, 2 mM MgCl2, and 500 μM MnCl2 overnight at 32° C. […]

[3] = in vitro assay of levopimaradiene synthase constructs expressed in wild-type S. cerevisiae JBY575; type: biochemical, Saccharomyces cerevisiae; settings: wild-type S. cerevisiae JBY575, galactose 48 hours, lysate with GGDP
Description: Expression in S. cerevisiae JBY575, which represents wild-type yeast, was observed. JBY575 cells transformed with pRS426GAL inserted with the putative levopimaradiene synthase were grown in synthetic complete medium lacking uracil and supplemented with 2% glucose and 1.5% agar at 30° C. to saturation and induced with galactose for 48 hours. Cells were harvested, resuspended in lysis buffer, and mixed by vortexing over glass beads. The lysate was assayed with 60 μM GGDP in the presence and absence of 0.2% and 5% Triton X-100.
as §1, §2
The skilled artisan recognizes that lysis and assay conditions should be optimized. Examples of parameters that can be adjusted to optimize conditions include altering buffer, pH, reductant, reductant concentration, metal cofactors, cofactor concentrations, glycerol concentrations, substrate concentrations, and assay temperatures. […] Maximum soluble protein production and diterpene yield were obtained with the following conditions. Cell cultures were induced with 1 mM IPTG at 20° C. with shaking for 6 hours and lysed by sonication in 30 mM HEPES, pH 7.2, 5 mM DTT, and 5% glycerol. The soluble fraction of the lysate (100 mg/1 mL) was incubated with 20 μM GGDP in 30 mM HEPES, pH 7.2, 5 mM DTT, 5% glycerol, 2 mM MgCl2, and 500 μM MnCl2 overnight at 32° C. Yeast expression was induced with galactose at 30° C. for 48 hours and the cells were lysed and assayed according to the conditions noted.

| Molecule | increase in levopimaradiene yield relative to the bacterial expression system ([1]; EHY18) | metal cofactor requirement of synthase activity ([2]; MgCl2 and MnCl2 varied) | diterpene product on yeast expression [3] | diterpene production relative to wild-type synthase ([1]; EHY18) | diterpene products on expression in EHY18 ([1]; GC, GC/MS) | diterpene product on bacterial expression ([2]; E. coli BL21(DE3), soluble lysate fraction, 20 μM GGDP, overnight at 32° C., GC and GC/MS) |
| --- | --- | --- | --- | --- | --- | --- |
| Levopimaradiene synthase: enzyme which catalyzes the synthesis of levopimaradiene from geranylgeranyl diphosphate; SEQ.ID.NO:2 (protein, listed as Ginkgo biloba) MAGVLFANLPCSLQLSPKVPFRQSTNILIPFHKRSSFGFNAQHCVRSHLRLRWNCVGIHASAAETRPDQLPQEERFVSRLNADYHPAVWKDDFIDSLTSPNSHATSKSSVDETINKRIQTLVKEIQCMFQSMGDGETNPSAYDTAWVARIPSIDGSGAPQFPQTLQWILNNQLPDGSWGEECIFLAYDRVLNTLACLLTLKIWNKGDIQVQKGVEFVRKHMEEMKDEADNHRPSGFEVVFPAMLDEAKSLGLDLPYHLPFISQIHQKRQKKLQKIPLNVLHNHQTALLYSLEGLQDVVDWQEITNLQSRDGSFLSSPASTACVFMHTQNKRCLHFLNFVLSKFGDYVPCHYPLDLFERLWAVDTVERLGIDRYFKKEIKESLDYVYRYWDAERGVGWARCNPIPDVDDTAMGLRILRLHGYNVSSDVLENFRDEKGDFFCFAGQTQIGVTDNLNLYRCSQVCFPGEKIMEEAKTFTTNHLQNALAKNNAFDKWAVKKDLPGEVEYAIKYPWHRSMPRLEARSYIEQFGSNDVWLGKTVYKMLYVSNEKYLELAKLDFNMVQALHQKETQHIVSWWRESGFNDLTFTRQRPVEMYFSVAVSMFEPEFAACRIAYAKTSCLAVILDDLYDTHGSLDDLKLFSEAVRRWDISVLDSVRDNQLKVCFLGLYNTVNGFGKDGLKEQGRDVLGYLRKVWEGLLASYTKEAEWSAAKYVPTFNEYVENAKVSIALATVVLNSIFFTGELLPDYILQQVDLRSKFLHLVSLTGRLINDTKTYQAERNRGELVSSVQCYMRENPECTEEEALSHVYGIIDNALKELNWELANPASNAPLCVRRLLFNTARVMQLFYMYRDGFGISDKEMKDHVSRTLFDPVA | three- to six | independent of magnesium but required manganese cofactor for catalysis |  |  |  |  |
| Leu^80: Ginkgo biloba levopimaradiene synthase truncated at Arg^79-Leu^80; amino acid sequence SEQ.ID.NO:37 (protein, listed as Ginkgo biloba) MLNADYHPAVWKDDFIDSLTSPNSHATSKSSVDETINKRIQTLVKEIQCMFQSMGDGETNPSAYDTAWVARIPSIDGSGAPQFPQTLQWILNNQLPDGSWGEECIFLAYDRVLNTLACLLTLKIWNKGDIQVQKGVEFVRKHMEEMKDEADNHRPSGFEVVFPAMLDEAKSLGLDLPYHLPFISQIHQKRQKKLQKIPLNVLHNHQTALLYSLEGLQDVVDWQEITNLQSRDGSFLSSPASTACVFMHTQNKRCLHFLNFVLSKFGDYVPCHYPLDLFERLWAVDTVERLGIDRYFKKEIKESLDYVYRYWDAERGVGWARCNPIPDVDDTAMGLRILRLHGYNVSSDVLENFRDEKGDFFCFAGQTQIGVTDNLNLYRCSQVCFPGEKIMEEAKTFTTNHLQNALAKNNAFDKWAVKKDLPGEVEYAIKYPWHRSMPRLEARSYIEQFGSNDVWLGKTVYKMLYVSNEKYLELAKLDFNMVQALHQKETQHIVSWWRESGFNDLTFTRQRPVEMYFSVAVSMFEPEFAACRIAYAKTSCLAVILDDLYDTHGSLDDLKLFSEAVRRWDISVLDSVRDNQLKVCFLGLYNTVNGFGKDGLKEQGRDVLGYLRKVWEGLLASYTKEAEWSAAKYVPTFNEYVENAKVSIALATVVLNSIFFTGELLPDYILQQVDLRSKFLHLVSLTGRLINDTKTYQAERNRGELVSSVQCYMRENPECTEEEALSHVYGIIDNALKELNWELANPASNAPLCVRRLLFNTARVMQLFYMYRDGFGISDKEMKDHVSRTLFDPVA |  |  | yielded levopimaradiene as the sole diterpene; also recorded: yielded levopimaradiene synthase activity | approximately four | produced (+)-copalol, levopimaradiene, abietadiene, and abietatriene | produced levopimaradiene as the exclusive diterpene hydrocarbon; also recorded: provided enzymatic activity capable of cyclizing geranylgeranyl diphosphate to levopimaradiene |
